Laboratory results taken from patent publication US20230295310A1.

Target: human CD3 expressed on cells (human) (UniProt P07766)
Assay: flow cytometry, 25 nM

Chain of human CD3 expressed on cells (human) (P07766 23-207, chain 1 of 3): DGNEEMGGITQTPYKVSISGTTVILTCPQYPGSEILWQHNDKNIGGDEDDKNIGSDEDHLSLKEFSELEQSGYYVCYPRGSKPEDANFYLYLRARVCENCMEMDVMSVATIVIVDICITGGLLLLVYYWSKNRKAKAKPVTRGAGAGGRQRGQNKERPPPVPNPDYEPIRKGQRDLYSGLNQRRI
Chain of human CD3 expressed on cells (human) (P04234 22-171, chain 2 of 3, further chain): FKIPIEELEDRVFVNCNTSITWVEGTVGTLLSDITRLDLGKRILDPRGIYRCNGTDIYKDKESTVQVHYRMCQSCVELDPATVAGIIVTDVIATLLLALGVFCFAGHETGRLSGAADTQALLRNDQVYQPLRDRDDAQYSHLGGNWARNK
Chain of human CD3 expressed on cells (human) (P09693 23-182, chain 3 of 3, further chain): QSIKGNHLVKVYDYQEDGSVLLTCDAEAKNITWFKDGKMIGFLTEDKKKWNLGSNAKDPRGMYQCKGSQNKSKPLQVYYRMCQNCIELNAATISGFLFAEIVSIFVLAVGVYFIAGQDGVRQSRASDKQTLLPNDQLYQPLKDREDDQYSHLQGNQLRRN

- Human primary T Cell Binding (FOI): 1.4 FOI
B1: mAb 109 (antibody, V domains shown)
VH: QVQLVESGGGVVQPGRSLRLSCVASGFPFRSYGMHWVRQAPGKGLEWVAFIWYDGSNKYYADSVRGRFTISRDNFKKMVYLQMNSLRAEDTAVYYCARDLAGIYAFDVWGQGTVVTVSS
VL: EIVMTQSPATLSVSPGERATLSCRASQSVSSNLAWYQQKPGQAPRLLIYGASTRATGIPARFSGSGSGTEFTLTVSSLQSEDFAIYYCQQYNNWRPLTFGGGTKVEIK
